According to publication PMC8850199, “Structure, mechanism and lipid-mediated remodeling of the mammalian Na^+/H^+ exchanger NHA2” (Nature Structural & Molecular Biology, 2022):

Target: the molecule itself
Experiment: native MS; detergent-purified NHA2ΔN exchanged into C12E9, ~20 μM, Q-Exactive Orbitrap modified for high m/z

B1: bison NHA2ΔN (SLC9B2 without the first 69 residues), GFP-TwinStrep-His8 tag removed with TEV protease (domain or fragment, Bison bison)
chain: RRRQIHACPPRGLLARVITNVTMVILLWAVVWSVTGSECLPGGNLFGIIMLFYCAIIGGKLFGLIKLPTLPPLPPLLGMLLAGFLIRNVPVISDNIQIKHKWSSALRSIALSVILVRAGLGLDSNALKKLKGVCVRLSLGPCLIEACTSAVLAYFLMGLPWQWGFMLGFVLGAVSPAVVVPSMLLLQEGGYGVEKGIPTLLMAAGSFDDILAITGFNTCLGMAFSTGSTVFNVLKGVLEVIIGVVTGLVLGFFIQYFPSSDQDNLVWKRAFLVLGLSVLAVFSSTYFGFPGSGGLCTLVTAFLAGRGWASTKTDVEKVIAVAWDIFQPLLFGLIGAEVLITALRPETIGLCVATLGIAVLIRILVTYLMVCFAGFNIKEKIFISFAWLPKATVQAAIGSVALDTARSHGEKQLEGYGMDVLTVAFLSIIITAPVGSLLIGLLGPRLLQKAEQNKDEEDQGETSIQV
notes: Na+/H+ exchanger NHA2 (SLC9B2), Bison bison, without the first 69 residues of the N-terminal tail; numbers count on: the full-length bison NHA2 as printed; residues of it stay on the C-terminus after digestion; also called biNHA2ΔN; source: S. cerevisiae FGY217, purified (DDM/CHS, Ni-NTA, TEV digestion, SEC); for nanodiscs reconstituted as GFP fusion with MSP1E2 and yeast PI, then TEV digestion …
  stoichiometry N: 2
